Tested on: MS2 coat protein
Assay: apparent KD of MS2 coat protein; higher = weaker reporter binding
Settings: Eterna round: R107
How it was run: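 For every design, apparent KD is the median of normalised binding-curve fits from its clusters. The RNA switches were transcribed on-chip from Illumina sequencing clusters and titrated with SNAP-549-labelled MS2 coat protein (twofold steps, 0.7 or 1.5 nM to 3 µM; 0.8–1.5 h to 10–20 min per step). Titrations used 100 mM Tris-HCl pH 7.5, 80 mM KCl, 4 mM MgCl2, without or with constant ligand.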

[1] = input ligand: theophylline 20 uM
[2] = input ligand: theophylline 2 mM
[3] = input ligand: tryptophan 2.4 mM

Sequence: CCUAUGCAGUCGGCCGCCACUGAGUCCUCAAUAAUAAAUUAAUAUACAUGAGGAUCACCCAUGUACAGGACCGGGACUGUAUAGG [Ex Tryptophan B 13]
- apparent KD of MS2 coat protein (input ligand: arginine 13.2 mM): 96.7 nM
- apparent KD of MS2 coat protein [1]: 268 nM
- apparent KD of MS2 coat protein [2]: 215 nM

Sequence: UCGCAUUGCUGCGAUACCAGACAUGAGGAUCACCCAUGUACCAAGGUACGAAAAUAACAUGUCCCUUGGCAGCGCAGCAAUGCGU [MAT - Exclusion Theophlline B - Mod of Eli - D5]
- apparent KD of MS2 coat protein (input ligand: arginine 13.2 mM): 11.9 nM
- apparent KD of MS2 coat protein [1]: 30.1 nM
- apparent KD of MS2 coat protein [3]: 13.9 nM

Sequence: AGUGUAUCCAUCGAUACCAGCCACCACCGAUAGACCACAUGAGGAUCACCCAUGUUGGGUGGCCCUUGGCAGCGGUGGCUGUGUA [Same State - Theophylline B Attempt #2 (HarryS)]
- apparent KD of MS2 coat protein (input ligand: arginine 13.2 mM): 57.5 nM
- apparent KD of MS2 coat protein [1]: 512 nM
- apparent KD of MS2 coat protein [3]: 546 nM

Sequence: AAAUAAAUACAUGAGGAUCACCCAUGUGAAGGAGCGCCCGUUAGGGCAGGUAGGUCGCACAUGAAAGGGAAGCGAAAGAAAUAAU [ArgEX 15 #OpenEnded]
- apparent KD of MS2 coat protein (input ligand: arginine 13.2 mM): 26.8 nM
- apparent KD of MS2 coat protein (input ligand: none): 20.2 nM
- apparent KD of MS2 coat protein [1]: 24.5 nM
- apparent KD of MS2 coat protein [2]: 16.5 nM
- apparent KD of MS2 coat protein [3]: 20.3 nM

Sequence: AUUAAAAGUUGUGAUACCAGACGAACAUGAGGAUCACCCAUGUAACUUUUAGGUGUUGUAGUCCCUUGGCAGCACUAUGUAGUUA [JR_SSTheophyB_Sub012]
- apparent KD of MS2 coat protein (input ligand: arginine 13.2 mM): 31.3 nM
- apparent KD of MS2 coat protein [1]: 49.2 nM
- apparent KD of MS2 coat protein [3]: 40.1 nM

Sequence: UGUAUGUGAUUUGAUACCAGACCAGCUGGUGUUAGAUGAGGAUCACCCAUCUAGGUUUGGGUCCCUUGGCAGCAAAUCGCAUACU [SS Theo B #24 Ms13]
- apparent KD of MS2 coat protein (input ligand: arginine 13.2 mM): 18 nM
- apparent KD of MS2 coat protein (input ligand: none): 18 nM
- apparent KD of MS2 coat protein [1]: 22.1 nM
- apparent KD of MS2 coat protein [2]: 11.4 nM
- apparent KD of MS2 coat protein [3]: 18 nM

Sequence: GCGAUGGAGCGAAGGAGCGGCUGUGACUACAUGAGGAUCACCCAUGUACGAUCGUAAGGUAGCCAGGUAGGUCGCGCUCCAUCGC [SSAB NP+V+V2 #17]
- apparent KD of MS2 coat protein (input ligand: arginine 13.2 mM): 18.7 nM
- apparent KD of MS2 coat protein (input ligand: none): 29.3 nM
- apparent KD of MS2 coat protein [1]: 41.8 nM
- apparent KD of MS2 coat protein [2]: 41.8 nM
- apparent KD of MS2 coat protein [3]: 26.2 nM

Sequence: ACAUCCAGGUUAAUCGUGGGCAUACUCGAUACCAGUAUUUUAAUCUACCCUUGGCAGCGACAUGAGGAUCACCCAUGUGCGAUGA [XTheo A #12]
- apparent KD of MS2 coat protein (input ligand: arginine 13.2 mM): 11.7 nM
- apparent KD of MS2 coat protein [1]: 14.1 nM
- apparent KD of MS2 coat protein [3]: 13.4 nM

Sequence: CAGUGAGAACGAAGGAGCGCUGAAUGAUGUGGACAUGAGGAUCACCCAUGUUAAGUCCAAUGGCAGGUAGGUCGCGUAACACUAG [Same State - Arginine B]
- apparent KD of MS2 coat protein (input ligand: arginine 13.2 mM): 14.1 nM
- apparent KD of MS2 coat protein (input ligand: none): 15.8 nM
- apparent KD of MS2 coat protein [1]: 11.9 nM
- apparent KD of MS2 coat protein [2]: 12.7 nM
- apparent KD of MS2 coat protein [3]: 15.8 nM

Sequence: UUUAAAUAGACGGCCGCCACUGGAAUUAAUACAUGAGGAUCACCCAUGUAGAGAGAAUAAUAAUACAGGACCGGGUCUUCAUGAA [SS Tryp B Tesla 1]
- apparent KD of MS2 coat protein (input ligand: arginine 13.2 mM): 27.2 nM
- apparent KD of MS2 coat protein [1]: 22.1 nM
- apparent KD of MS2 coat protein [2]: 38.9 nM

Sequence: UUUGAUAGGACAGAUACCAGCGUGUUGUUGAACAUGAGGAUCACCCAUGUAGUGAUCAAGCGCCCUUGGCAGCUGGUUUGUUAGG [7.M]
- apparent KD of MS2 coat protein (input ligand: arginine 13.2 mM): 95.5 nM
- apparent KD of MS2 coat protein [1]: 240 nM
- apparent KD of MS2 coat protein [3]: 302 nM

Sequence: UUAAAGGCACCUCAUGGGACUAUAAACCCGCGAGGACCGGUACGGCCGCCACUCGAAUAUCAACAUGAGGAUCACCCAUGUGGUU [theeternabot_exclusion_MS2_Trp_A_6]
- apparent KD of MS2 coat protein (input ligand: arginine 13.2 mM): 16.2 nM
- apparent KD of MS2 coat protein [1]: 32.3 nM
- apparent KD of MS2 coat protein [2]: 29.6 nM

Sequence: GUCUCUGGGAGAAGGAGCGUGAAGACAUGAGGAUCACCCAUGUAGAGGCGCCGACGGCGUUCGCAGGUAGGUCGCUCCCAGAGAC [#1 Same State - Arginine B Attempt #18 (HarryS)]
- apparent KD of MS2 coat protein (input ligand: arginine 13.2 mM): 18.9 nM
- apparent KD of MS2 coat protein (input ligand: none): 23.9 nM
- apparent KD of MS2 coat protein [1]: 44.5 nM
- apparent KD of MS2 coat protein [2]: 110 nM
- apparent KD of MS2 coat protein [3]: 14 nM

Sequence: GCUACAUGAGGAUCACCCAUGUAUGCGAGUCGAGGACCGGUACGGCCGCCACUCGCUUAACAUGAGGAUCACCCAUGUUACUCGC [SSTA DOUBLE!!! :-D #19]
- apparent KD of MS2 coat protein (input ligand: arginine 13.2 mM): 56 nM
- apparent KD of MS2 coat protein [1]: 106 nM
- apparent KD of MS2 coat protein [2]: 88.7 nM

Sequence: UGUGGGCGCACGGCCGCCACUGUCUUCAUCUGUUUGUCUACAUGAGGAUCACCCAUGUUGGUUUACAGGACCGGGUGCAUCUAUG [SSTryp B #12]
- apparent KD of MS2 coat protein (input ligand: arginine 13.2 mM): 39.5 nM
- apparent KD of MS2 coat protein [1]: 80.8 nM
- apparent KD of MS2 coat protein [2]: 52.1 nM

Sequence: CGAGUCCGCUGAUGGGCUAAGUCAGGUGAUACCAGCCACUCCCGCGGCCCUUGGCAGCACAUGAGGAUCACCCAUGUAGGGCUUG [Iserbele]
- apparent KD of MS2 coat protein (input ligand: arginine 13.2 mM): 19.2 nM
- apparent KD of MS2 coat protein [1]: 51.1 nM
- apparent KD of MS2 coat protein [3]: 23.1 nM

Sequence: AGCACGGUGAUGGUAGCCGGACGCUAGGUACGAGGACCGGUACGGCCGCCACUCGAAGUCCUACGACAUGAGGAUCACCCAUGUA [Same State Trp A GF13]
- apparent KD of MS2 coat protein (input ligand: arginine 13.2 mM): 37.9 nM
- apparent KD of MS2 coat protein [1]: 59.2 nM
- apparent KD of MS2 coat protein [2]: 75.2 nM

Sequence: GCGGUGGUCGGAAGGAGCGACAUGAGGAUCACCCAUGUCUCCCGUUAUGGGAGUUCCUUAGGUCAGGUAGGUCGCCGACUGCCGC [#1 Exclusion - Arginine B Attempt #21 (Inspired by Omei)]
- apparent KD of MS2 coat protein (input ligand: arginine 13.2 mM): 105 nM
- apparent KD of MS2 coat protein (input ligand: none): 195 nM
- apparent KD of MS2 coat protein [1]: 234 nM
- apparent KD of MS2 coat protein [2]: 260 nM
- apparent KD of MS2 coat protein [3]: 227 nM

From the supplement of paper PMC9170038
